Values quoted from earlier work in paper PMC4859893.

Molecular target: EGFR (Homo sapiens) (UniProt P00533)

EGF (from UniProt P01133)
Kd: 2 nM
